Earlier results in patent US20100247512A1, “Pericellular Collagenase Directs the 3-Dimensional Development of White Adipose Tissue” (The Regents of the University of Michigan, priority 2006, published 2010).
The star is where a group is joined. Decanoyl = CCCCCCCCCC(=O)*; CH2Cl = ClC*

Columns and labels:
MT1-MMP = MT1-MMP (Homo sapiens, UniProt P50281); conditions: Rosenthal, et al., 2005
pro-MT1-MMP = conditions: Rosenthal, et al., 2005

Row | inhibition of MT1-MMP, blocking collagenolysis (MT1-MMP) | Substance | inhibition of intracellular conversion of pro-MT1-MMP to its active form (pro-MT1-MMP)
1 | poor inhibitor of MT1-MMP | TIMP-1: member of the tissue inhibitors of metalloproteinases (TIMPs), a family of natural protein MMP inhibitors | 
2 |  | deconyl-Arg-Val-Lys-Arg-CMK (Decanoyl-RVKR-CH2Cl) | inhibits the intracellular conversion of pro-MT1-MMP to its active form
